Data taken from US6825001B2, “DNA molecules and protein displaying improved triazine compound degrading ability” (Regents of the University of Minnesota, priority 1997, dated 2004).
Entries after “also recorded” stand apart in the source; their conditions may differ.

Tests used:
[1] = biological target: T1, wild-type AtzA protein (Pseudomonas sp., UniProt P72156); assay: substrate range of wild-type AtzA protein; assay type: biochemical, Pseudomonas sp. strain ADP
T1 construct: made in house; host or cells: E. coli
Source text: Enzyme Kinetics. […] HPLC analysis was done as described above.

[2] = atrazine-degrading activity of AtzA homologs compared with wild type; conditions: compared with wild-type AtzA or parent homolog
Protocol: Serial dilutions of the transformation reaction were plated onto LB plates containing 50 μg/ml ampicillin, the remainder of the transformation was stored in 25% glycerol and frozen at −80° C.
Environ. Microbiol., 61, 1451-1457 (1995), at a final concentration of 500 μg/ml to produce an opaque suspension of small particles in the clear agar. […] Positive colonies that most rapidly formed the largest clear zones were selected initially for further analysis. The (approximately) 40 best colonies were picked, pooled, grown in the presence of 50 μg/ml ampicillin and plasmid prepared from them.
Enzyme Kinetics. […] The reactions were stopped by boiling the reaction tubes at specific times, the addition of 500 μl acetonitrile and rapid freezing at −80° C. Thawed samples were centrifuged at 14,000 rpm for 10 minutes, the supernatants were filtered through a […] filter, and placed into crimp-seal HPLC vials. HPLC analysis was done as described above.

[3] = TERBUTHYLAZINE-degrading activity of AtzA homologs; assay type: biochemical; conditions: compared with wild-type enzyme
Protocol: TERBUTHYLAZINE was incorporated in solid LB medium at a final concentration of about 400-500 μg/ml to produce an opaque suspension of sample particles in the clear agar. […] HPLC analysis was performed with a Hewlett Packard HP 1090 Liquid Chromatograph system equipped with a photodiode array detector and interfaced to an HP 79994A Chemstation. TERBUTHYLAZINE and its metabolites were resolved by using an analytical C^18 reverse-phase Nova-Pak HPLC column (4 μm-diameter spherical packing, 150 by 3.9 mm; Waters Chromatography, Milford, Mass.) and an acetonitrile (ACN) gradient, in water, at a flow rate of 1.0 ml min^−1. Linear gradients of 0 to 6 min, 10 to 25% ACN; 6 to 21 min, 25 to 65% ACN; 21 to 23 min, 65 to 100% ACN; and 23 to 25 min, 100% ACN were used. Spectral data of the column eluent were acquired between 200 and 400 nm (12-nm bandwidth per channel) at a sampling frequency of 640 ms. Spectra were referenced against a signal of 500 nm.
Sample 1 is a control sample without enzyme. […] Sample 3 employed the T7 homolog (SEQ ID NO:6) and Sample 4 employed the A7 homolog (SEQ ID NO:5). Results were determined by HPLC as described above. FIG. 8(a) provides the percentage of TERBUTHYLAZINE remaining after a 15 minute exposure to homologs A7, A11, and T7. Samples 1-10 refer to the effect of homolog activity in the presence of 50 uM of: Manganese (1); Mangnesium (2), EDTA (3); cobalt (4); zinc (5); iron (6); copper (7); nickel (8); no metal (9); or no eznyme (10). FIG. 8(b) provides the relative amount of hydroxyterbuthylazine as a measure of TERBUTHYLAZINE degradation for homologs A7 (solid bar), A11 (hatched bar), or T7 (open bar) in the presence or absence of additives 1-10 (supra).

Molecule | degradation of substrate by wild-type AtzA protein (in words) [1] | atrazine degradation activity (in words) [2] | TERBUTHYLAZINE degradation activity (in words) [3]
Nc1nc(N)nc(Cl)n1 [Desethyldesisopropylatrazine, 2-chloro-4,6-diamino-s-triazine] | did not degrade |  | 
CCNc1nc(N)nc(Cl)n1 [Desisopropylatrazine, 2-chloro-4-ethylamino-6-amino-s-triazine] | acts on |  | 
Nc1nc(N)nc(N)n1 [MELAMINE, 2,4,6-triamino-s-triazine] | did not degrade |  | 
CCNc1nc(Cl)nc(NCC)n1 [SIMAZINE, 2-chloro-4,6-diethylamino-s-triazine] | acts on |  | 
CCNc1nc(Cl)nc(NC(C)(C)C)n1 [TERBUTHYLAZINE, 2-chloro-4-(ethylamino)-6-(tertiarybutyl-amino)-1,3,5-triazine] | only poorly degraded |  | 
CCNc1nc(Cl)nc(NC(C)C)n1 [atrazine, 2-chloro-4-(ethylamino)-6-(isopropylamino)-1,3,5-triazine] | acts on |  | 
CC(C)Nc1nc(N)nc(Cl)n1 [desethylatrazine, 2-chloro-4-amino-6-isopropylamino-s-triazine] | acts on |  | 
T7: AtzA homolog, gene SEQ ID NO:4, protein SEQ ID NO:6 (protein) SAATAALIMKASMVTLTPLFSFSLLNCTRKASRSVMSASSWLVTCGMTTQLRCRFFDGVISALRRVTHYWRHIMQTLSIQHGTLVTMDQYRRVLGDSWVHVQDGRIVALGVHAESVPPPADRVIDARGKVVLPGFINAHTHVNQILLRGGPSHGRQFYDWLFNVVYPGQKAMRPEDVAVAVRLYCAEAVRSGITTINENADSAIYPGNIEAAMAVYGEVGVRVVYARMFFDRMDGRIQGYVDALKARSPQVELCSIMEETAVAKDRITALSDQYHGTAGGRISVWPAPATTTAVTVEGMRWAQAFARDRAVMWTLHMAESDHDERIHGMSPADYMECYGLLDERLQVAHCVYFDRKDVRLLHRHNVKVASQVVSNAYLGSGVAPVPEMVERGMAVGIGTDNGNSNDSVNMIGDMKFMAHIHRAVHRDADVLTPEKILEMATIDGARSLGMDHEIGSIETGKRADLILLDLRHPQTTPHHHLAATIVFQAYGNEVDTVLIDGNVVMENRRLSFLPPERELAFLEEAQSRATAILQRANMVANPAWRSLEMTPLLHPPPLEEIAAILARLGLGGGHDLDGYRIAMNAALPSFARVESLVGEGRLRAPASRRSERPE |  | enhanced atrazine degradation activity | better than the wild-type enzyme; also recorded: enhanced TERBUTHYLAZINE degradation activity
A40: AtzA homolog, nucleic acid SEQ ID NO:17, amino acid SEQ ID NO:22 (protein) MQTLSIQHGTLVTMDQYRRVLGDSWVHVQDGRIVALGVHAKSVPPPADRVIDARGKVVLPGFINAHTHVNQILLRGGPSHGRQFYDWLFNVVYPGQKAMRPEDVAVAVRLYCAEAVRSGITTINENADSAIYPGNIEAAMAVYGEVGVRVVYARMFFDRMDGRIQGYVDALKARSPQVELCSIMEETAVAKDRITALSDQYHGTAGGRISVWPAPATTTAVTVEGMRWAQAFARDRAVMWTLHMAESDHDGRIHGMSPAEYMECYGLLDERLQVAHCVYFDRKDVRLLHRHNVKVASQVVSNAYLGSGVAPVPEMVERGMAVGIGTDNGNSNDSVNMIGDMKFMAHIHRAVHRDADVLTPEKILEMATIDGARSLGMDHEIGSIETGKRADLILLDLRHPQTTPHHHLAATIVFQAYGNEVDTVLIDGNVVMENRCLSFLPPERELAFLEGAQSRATAILQRANMVANPAWRSLEMTPLLHPPPLEEIAAILARLG |  | improved rate of catalytic activity | 
A46: AtzA homolog, nucleic acid SEQ ID NO:20, amino acid SEQ ID NO:25 (protein) MQTLSIQHGTLVTMDQYRRVLGDSWVHVQDGRIVALGVHAESVPPPADQVIDARGKVVLPGFINAHTHVNQILLRGGPSHGRQFHDWLFNVVYPGQKAMRPEDVAVAVRLYCAEAVRSGITTINENADSAIYPGNIEAAMAVYGEVGVRVVYARMFFDRMDGRIQGYVDALKARSPQVELCSIMEETAVAKDRITALSDQYHGTAGGRISVWPAPATTTAVTVEGMRWAQAFARDRAVMWTLHMAESDHDGRIHGMSPAEYMECYGLLDERLQVAHCVYFDRKDVRLLHRHNVKVASQVVSNAYLGSGVAPVPEMVERGMAVGIGTDNGNSNDSVNMIGDMKFMAHIHRAVHRDADVLTPEKILEMATIDGARSLGMDHEIGSIETGKRADLILLDLRHPQTTPHHHLAATIVFQAYGNEVDTVLIDGNVVMENRRLSFLPPERELAFLEEAQSRATAILQRANMVANPAWRSLEMTPLLHPPPLEEIAAILARLG |  | improved rate of catalytic activity | capable of better degrading
A44: AtzA homolog, nucleic acid SEQ ID NO:19, amino acid SEQ ID NO:24 (protein) MQTLSIQHGTLVTMDQYRRVLGDSWVHVQDGRIVALGVHAESVPPPADRVIDARGKVVLPGFINAHTHVNQILLRGGPSHGRQFYDWLFNVVYPGQKAMRPEDVAVAVRLYCAEAVRSGITTINENADSAIYPGNIEAAMAVYGEVGVRVVYARMFFDRMDGRIQGYVDALKARSPQVELCSIMEETAVAKDRITALSDQYHGTAGGRISVWPAPATTTAVTVEGMRWAQAFARDRAVMWTLHMAESDHDERIHGMSPAEYMECYGLLDERLQVAHCVYFDRKDVRLLHRHNVKVASQVVSNAYLGSGVAPVPEMVERGMAVGIGTDNGNSNDSVNMIGDMKFMAHIHRAVHRDADVLTPEKILEMATIDGARSLGMDHEIGSIETGKRADLILLDLRHPQTTPHHHLAATIVFQAYGNEVDTVLIDGNVVMENRRLSFLPPERELAFLEEAQSRATAILQRANMVANPAWRSLEMTPLLHPLPLEEIAAILARLG |  | improved rate of catalytic activity | capable of better degrading
A42: AtzA homolog, nucleic acid SEQ ID NO:18, amino acid SEQ ID NO:23 (protein) MQTLSIQHGTLVTMDQYRRVLGDSWVHVQDGRIVALGVHAESVPPPADRVIDARGKVVLPGFINAHTHVNQILLRGGPSHGRQFYDWLFNVVYPGQKAMRPEDVAVAVRLYCAEAVRSGITTINENADSAIYPGNIEAAMAVYGEVGVRVVYARMFFDRMDGRIQGYVDALKARSPQVELCSIMEETAVAKDRITALSDQYHGTAGGRISVWPAPATTTAVTVEGMRWAQAFARDRAVMWTLHMAESDHDERIHGMSPAEYMECHGLLDERLQVAHCVYFDRKDVRLLHRHNVKVASQVVSNAYLGSGVAPVPEMVERGMAMGIGTDNGNSNDSVNMIGDMKFMAHIHRAVHRDADVLTPEKILEMATIDGARSLGMDHEIGSIETGKRADLILLDLRHPQTTPHHHLAATIVFQAYGNEVDTVLIDGNVVMENRRLSFLPPERELAFLEEAQSRATAILQRANMVANPAWRSLEMTPLLHPPPLEEIAAILARLG |  | improved rate of catalytic activity | capable of better degrading
A60: AtzA homolog, nucleic acid SEQ ID NO:21, amino acid SEQ ID NO:26 (protein) MQTLSIQHGTLVTMDQYRRVLGDSWVHVQDGRIVALGVHAESVPPPADRVIDARGKVVLPGFINAHTHVNQILLRGGPSHGRQFYDWLFNVVYPGQKAMRPEDVAVAVRLYCAEAVRSGITTINENADSAIYPGNIEAAMAVYGEVGVRVVYARMFFDRMDRRIQGYVDALKARSPQVELCSIMEETAVAKDRITALSDQYHGTAGGRISVWPAPATTTAVTVEGMRWAQAFARDRAVMWTLHMAESDHDERIHGMSPAEYMECYGLLDERLQVAHCVYFDRKDIRLLHRHNVKVASQAVSNAYLGSGVAPVPEMVERGMAVGIGTDNGNSNDSVNMIGDMKFMAHIHRAVHRDADVLTPEKILEMATIDGARSLGMDHEIGSIETGKRADLILLDLRHPQTTPHHHLAATIVFQAYGNEVDTVLIDGNVVMENRRLSFLPPERELAFLEEAQSRATAILQRANMVANPAWRSLEMTPLLHPPPLEEIAAILAQLG |  | improved rate of catalytic activity | capable of better degrading
